# Data reported in patent US7951356B1, “Tissue factor compositions and kits for coagulation and tumor treatment” (Board of Regents, The University of Texas System, priority 1997, dated 2011).
# B1: tTF219: truncated Tissue Factor: residues 1-219 of TF plus an additional glycine at the N-terminus; SEQ ID NO:1 (protein)
# chain: GSGTTNTVAAYNLTWKSTNFKTILEWEPKPVNQVYTVQISTKSGDWKSKCFYTTDTECDLTDEIVKDVKQTYLARVFSYPAGNVESTGSAGEPLYENSPEFTPYLETNLGQPTIQSFEQVGTKVNVTVEDERTLVRRNNTFLSLRDVFGKDLIYTLYYWKSSSSGKKTAKTNTNEFLIDVDKGENYCFSVQAVIPSRTVNRKSTDSPVECMGQEKGEFRE
# Key:
# [1] = tested on: L540 human Hodgkin's disease tumors; assay: Anti-tumor effects (tumor growth), L540 tumors; type: in vivo, mouse; conditions: day 14; FIG. 19
# Method: (§1) Accepted animal models were used to determine whether administration of tTF or immunoglobulin-tTF conjugates suppressed the growth of solid tumors in mice. The tumor test systems were: i) L540 human Hodgkin's disease tumors growing in SCID mice; ii) C1300 Muγ (interferon-secreting) neuroblastoma growing in nu/nu mice; iii) H460 human non-small cell lung carcinoma growing in nu/nu mice. To establish solid tumors, 1.5×10^7 tumor cells were injected subcutaneously into the right anterior flank of SCID or BALB/c nu/nu mice (Charles River Labs., Wilmingham, Mass.). When the tumors had grown to various diameters, mice were assigned to different experimental groups, each containing 4 to 9 mice.
# (§2) Mice then received an intravenous injection of 0.5 mg/kg of tTF alone or linked to bispecific antibody. Other mice received equivalent quantities of bispecific antibody alone. The injections were performed over ˜45 seconds into one of the tail veins, followed by 200 μl of saline. The infusions were repeated six days later. Perpendicular tumor diameters were measured at regular intervals and tumor volumes were calculated.
# [2] = tested on: C1300 Muγ mouse neuroblastoma; assay: In vivo tumor thrombosis, C1300 Muγ tumors
# Text: (§3) Tumor test systems were of four types: i) 3LL mouse lung carcinoma growing subcutaneously in C57BL/6 mice; ii) C1300 mouse neuroblastoma growing subcutaneously in BALB/c nu/nu mice; iii) HT29 human colorectal carcinoma growing subcutaneously in BALB/c nu/nu mice; and iv) C1300 Muγ mouse neuroblastoma growing subcutaneously in BALB/c nu/nu mice. The C1300 Muγ tumor is an interferon-γ secreting transfectant derived from the C1300 tumor (Watanabe et al., 1989).
# Further, the C1300 (Muγ) tumor model of (Burrows, et al., 1992; incorporated herein by reference) was employed and modified as follows: (i) antibody B21-2 was used to target I-A^d; (ii) C1300(Muγ) tumor cells, a subline of C1300(Muγ) 12 tumor cells, that grew continuously in BALB/c nu/nu mice were used; and (iii) tetracycline was […] the mice's drinking water to prevent gut bacteria from inducing I-A^d on the gastrointestinal epithelium.
# (§4) To establish tumors, 10^6 to 1.5×10^7 tumor cells were injected subcutaneously into the right anterior flank of the mice. When tumors had grown to various sizes, mice were randomly assigned to different study groups. Mice then received an intravenous injection of 0.5 mg/kg of tTF alone or linked to IgG, Fab′, or bispecific antibody. Other mice received equivalent quantities IgG, Fab′ or bispecific antibody alone. The injections were performed slowly into one of the tail veins over approximately 45 seconds, usually followed by 200 μl of saline.
# (§5) Twenty-four hours after being injected with tTF or immunoglobulin-tTF conjugates, the mice were anesthetized with metophane and were exsanguinated by perfusion with heparinized saline. Tumors and normal tissues were excised and immediately fixed in 3% (v/v) formalin. Paraffin sections were cut and stained with hematoxylin and eosin. Blood vessels having open lumens containing erythrocytes and blood vessels containing thrombi were counted. Paraffin sections were cut and stained with hematoxylin and eosin or with Martius Scarlet Blue (MSB) trichrome for the detection of fibrin.
# citrated mouse plasma = assay: In vitro coagulation assay: tTF constructs localized on A20 lymphoma cells via bispecific antibody B21-2/10H10; type: cell-based; conditions: for time in which plasma coagulated: FIG. 20; for coagulation time: FIG. 4B
# Method: This assay was used to verify that tTF, various derivatives and mutants thereof, and immunoglobulin-tTF conjugates acquire coagulation inducing activity once localized at a cell surface. A20 lymphoma cells (I-A^d positive) (2×10^6 cells/ml, 50 μl) were incubated for 1 h at room temperature with a bispecific antibody (50 μg/ml, 25 μl) consisting of a Fab′ arm of the B21-2 antibody directed against I-A^d linked to a Fab′ arm of the 10H10 antibody directed against a non-inhibitory epitope on tTF. The cells were washed at room temperature and varying concentrations of tTF, derivatives or mutants thereof, or immunoglobulin-tTF conjugates were added for 1 hour at room temperature. The bispecific antibody captures the tTF or tTF linked to immunoglobulin, bringing it into close approximation to the cell surface, where coagulation can proceed.
# The cells were washed again at room temperature, resuspended in 75 μl of PBS and warmed to 37° C. […] The time for the first fibrin strands to form was recorded. Clotting time was plotted against tTF concentration and curves compared with standard curves prepared using standard tTF219 preparations.
# [3] = tested on: HT29 human colorectal carcinomas; assay: Anti-tumor effects (tumor growth), HT29 tumors; type: in vivo, mouse; conditions: nu/nu mice, large (1200 mm^3) tumors, intravenous; FIG. 14
# Method: Anti-tumor effects were also observed in mice bearing HT29 human colorectal carcinomas (FIG. 14). Nu/nu mice bearing large (1200 mm^3) tumors on their flanks were injected intravenously with tTF219 or PBS (control), and growth of the tumors was monitored each day for 10 days. The tumors in the tTF219 treated mice discontinued growth for about 7 days after treatment, whereas the tumors in mice treated with PBS continued to grow unchecked.
# [4] = tested on: H460 human non-small cell lung carcinoma; assay: Anti-tumor effects (tumor growth), H460 tumors; type: in vivo, mouse; conditions: FIG. 13
# Method: as §1, §2
# [5] = Toxicity and histology of normal organs in treated tumor-bearing mice; type: in vivo, mouse; conditions: 30 minutes or 24 hours after administration
# Text: as §5
# [6] = tested on: C1300 mouse neuroblastoma; assay: In vivo tumor thrombosis, C1300 tumors
# Text: as §3, §4
# (§6) Twenty-four hours after being injected with tTF or immunoglobulin-tTF conjugates, the mice were anesthetized with metophane and were exsanguinated by perfusion with heparinized saline. Tumors and normal tissues were excised and immediately fixed in 3% (v/v) formalin. […] Blood vessels having open lumens containing erythrocytes and blood vessels containing thrombi were counted. […]
# factor X = conditions: appropriate phospholipid membrane environment; Ruf, et al., 1991b; cited from earlier work
# [7] = tested on: HT29 (human colorectal carcinoma) xenograft; assay: Tumor necrosis in HT29 xenografts 24 hours after treatment (Example XII); type: in vivo, mouse; conditions: 24 hours after intravenous injection; tumors 0.5 to 1.0 cm^3; FIG. 23
# Method: For these studies, the inventors chose the HT29 (human colorectal carcinoma) xenograft tumor model. HT29 cells (10^7 cells/mouse) were subcutaneously injected into BALB/c nu/nu mice. Tumor dimensions were monitored and animals were treated when the tumor size was between 0.5 and 1.0 cm^3.
# Animals were sacrificed 24 hours after treatment, perfused with saline and heparin and exsanguinated. Tumors and organs were collected, formalin fixed and histological sections were prepared. The average area of necrosis in sections of the tumors was quantified and calculated as a percentage of the total area of tumor on the section.
# 3LL mouse lung carcinoma = assay: In vivo tumor thrombosis, 3LL tumors; conditions: C57BL/6 mice, large (>800 mm^3) tumors; FIG. 11
# Text: as §3, §4, §6
# [8] = tested on: C1300 Muγ (interferon-secreting) neuroblastoma; assay: Anti-tumor effects (tumor growth), C1300 Muγ tumors; type: in vivo, mouse
# Method: as §1, §2
molecule,measurement,setting,value
COc1cc([C@@H]2c3cc4c(cc3[C@@H](O[C@@H]3O[C@@H]5CO[C@@H](C)O[C@H]5[C@H](O)[C@H]3O)[C@H]3COC(=O)[C@H]23)OCO4)cc(OC)c1O [etoposide],average tumor volume,[1],1400 mm^3
B1,thrombosis of tumor vessels,"[2]; 24 hours after injection, large tumors, FIG. 9",practically all vessels in all regions of the tumor were thrombosed
same,effect on tumor vessels,[2]; small (<500 mm^3) tumors,largely unaffected
same,gross appearance of tumors,"[2]; starting within 30 minutes, progressively more marked up to 24 hours","blackened, bruised appearance"
same,time in which plasma coagulated,"citrated mouse plasma; 10^−10 M tTF219, absence of Factor VIIa",60 s
same,time in which plasma coagulated,"citrated mouse plasma; 10^−10 M tTF219, presence of 13.5 nM Factor VIIa",20 s
same,coagulation time,"citrated mouse plasma; 20,000 molecules per cell",140 s
same,coagulation time,"citrated mouse plasma; 300,000 molecules of tTF per cell",40 s
same,effect on coagulation time,"citrated mouse plasma; A20 cells incubated without both specificities needed to bind tTF to the cells, FIG. 4A",no effect on coagulation time
same,increase in coagulation-inducing potency of tTF,citrated mouse plasma; presence of 0.1 nM Factor VIIa,2-5 fold
same,time until fibrin strands were visible after the addition of plasma,"citrated mouse plasma; tTF bound to A20 cells by B21-2/10H10, mouse plasma, FIG. 4A",36 s
same,time for which tumors discontinued growth after treatment,[3],about 7 days
same,tumor volume to which tumors regressed before regrowing,[4]; second treatment given when tumors were 900 mm^3,550 mm^3
same,effect of the first treatment,[4]; tumors small (250 mm^3),little effect on growth rate
same,"thrombi or abnormalities in paraffin sections of liver, kidney, lung, intestine, heart, brain, adrenals, pancreas, spleen",[5],"neither thrombi, nor histological or morphological abnormalities were visible"
same,thrombosis of tumor vessels,"[6]; large tumors (>1000 mm^3), 24 hours after injection, FIG. 10",virtually all vessels were thrombosed
same,effect on tumor vessels,[6]; small (<500 mm^3) tumors,largely unaffected
same,times less factor X-activating activity relative to native transmembrane TF,factor X,approximately 10^5 times
same,"necrosis in tumor sections, in words",[7],some necrosis
same,"tumor vessels thrombosed, on average",3LL mouse lung carcinoma,62%
same,tumor size relative to controls receiving diluent alone,"[8]; fourteen days after the first injection, small (300 mm^3) tumors, treatment repeated 6 days later, FIG. 18",75%
same,tumor response,"[8]; large (0.8 to 1.0 cm diameter) tumors, two intravenous injections 6 days apart, FIG. 12A",grew significantly more slowly
same,tumor size relative to tumors in mice receiving diluent alone,"[8]; one week after the second treatment, small (300 mm^3) tumors at start",60%
same,effect of the first treatment on tumor growth,"[8]; small (300 mm^3) tumors, 16-20 μg intravenously, FIG. 12B",slight inhibitory effect on tumor growth
same,effect of the second treatment on tumor growth,"[8]; treatment repeated one week later, FIG. 12B","substantially greater, statistically significant (P<0.01), effect on tumor growth"
